Data set [1] deals with yeast Hsp90. Also on record: method as in 2 sources, ref [41] = [41]; PMID 12504007; doi:10.1016/s1097-2765(02)00785-2; 41 Panaretou B , Siligardi G , Meyer P , Maloney A , Sullivan JK , Singh S , et al Activation of the ATPase activity of hsp90 by the stress-regulated cochaperone aha1 . Mol Cell . 2002; 10 ( 6 ): 130 ||| ref [42] = [42]; PMID 9927435; doi:10.1093/emboj/18.3.754; 42 Prodromou C , Siligardi G , O'Brien R , Woolfson DN , Regan L , Panaretou B , et al Regulation of Hsp90 ATPase activity by tetratricopeptide repeat (TPR)-domain co-chaperones . Embo J . 1999; 18. The conditions noted are these: cited from earlier work.

Data set [2] has as its target T1, FKBP^1-380 (Homo sapiens, UniProt Q14318).
T1 construct: representing amino acids 1–380 and lacking the C-terminal trans-membrane helix; made in house; host or cells: E. coli BL21 (DE3)
As to the kind of experiment: Isothermal titration calorimetry (ITC), binding to FKBP^1-380 (FKBP8 isoform lacking the transmembrane domain). The conditions noted are these: ITC (ITC200); intact protein or domain fragment; 20 mM Tris, 300 mM NaCl, 1mM EDTA pH 7.5; method: 700 to 800 μM FKBP injected into 50 μM Hsp90; Fig 2 picture: Hsp90β into FKBP^1-380 (panel C). The text has this: (§1) FKBP8 (FKBP^1-380) was cloned as an NdeI-HindIII fragment representing amino acids 1–380 and lacking the C-terminal trans-membrane helix into pDMXV4 with a non-cleavable C-terminal His6-Tag (Fig 1). The FKBP38 immunophilin domain, representing amino acids 92–207 (FKBP^92-207), and a larger fragment containing both the immunophilin and TPR domain (FKBP^92-380) were also cloned in pDMXV4 (Fig 1). The K307E mutation was generated in the FKBP8^92-380 construct by PCR mutagenesis. Full-length human Hsp90β, human Hsp70, two middle domain human fragments (Hsp90β^295–689 and Hsp90β^295–724) and a yeast C-terminal fragment of Hsp90 (yHsp90^546-709) were expressed from pRSETA as His-tagged fusions. The Hsp90α^464–732 construct was expressed from p2E (A. Oliver, University of Sussex), as a PreScission cleavable His-tagged fusion. […]
(§2) Proteins were dialysed overnight into 20 mM Tris, 300 mM NaCl, 1mM EDTA pH 7.5. The heat of interaction was measured on an ITC200 microcalorimeter (Microcal), with a cell volume of 200 μL, under the same buffer conditions. […] Heats of dilution were determined in a separate experiment by diluting protein into buffer, and the corrected data were fitted using a non-linear least-squares curve-fitting algorithm (Microcal Origin) with three floating variables: stoichiometry, binding constant and change in enthalpy of interaction.
A general note: In ITC the heat of successive injections is recorded.

The target of data set [3] is FKBP^92-380. As to the kind of experiment: Isothermal titration calorimetry (ITC), binding to FKBP^92-380 (FKBP38 isoform). Particulars: ITC (ITC200); 20 mM Tris, 300 mM NaCl, 1mM EDTA pH 7.5; 700 to 800 μM FKBP^92-380 injected into 50 μM intact Hsp90β.
Description: as §1, §2

Data set [4] relates to FKBP^92-207. In words: Isothermal titration calorimetry (ITC), binding to the immunophilin domain alone. Particulars: full-length Hsp90β, 20 mM Tris, 300 mM NaCl, 1mM EDTA pH 7.5, 700 to 800 μM FKBP^92-207 injected into 50 μM Hsp90β.
Description: as §1, §2

Data set [5] has as its system K307E mutant of FKBP^92-380. In words: Isothermal titration calorimetry (ITC), binding to the K307E carboxylate clamp mutant. The conditions noted are these: 20 mM Tris, 300 mM NaCl, 1mM EDTA pH 7.5, 700 to 800 μM mutant injected into 50 μM yeast Hsp90^546-709.
Description: as §1, §2

Data set [6] relates to FKBP^92-380. In words: Analytical gel-filtration chromatography, co-migration with FKBP^92-380. The data set is classed as binding. The conditions noted are these: Superdex 200; equimolar mixture; 50 mM Tris, 300 mM NaCl, 1 mM EDTA, 0.5 mM TCEP, pH 7.5. The protocol: Equimolar concentrations of the C-terminal fragment of yHsp90^546-709 and FKBP^92-380 were mixed and loaded onto an analytical Superdex 200 column equilibrated in 50 mM Tris, 300 mM NaCl, 1 mM EDTA and 0.5 mM TCEP at pH 7.5.

Data set [7] concerns the target T1, FKBP^1-380. As to the kind of experiment: Gel-filtration chromatography, co-migration with FKBP^1-380 (as in the legend of Fig 2L). The format is binding. Particulars: Fig 2L legend: yHsp90^546-709, FKBP^1-380 and their mixture; Superdex 200, pH 7.5.

“Also recorded” adds a separate entry of the source. Like-named read-outs stand apart in the source and are kept apart here.

T1 sequence (Q14318 1-380): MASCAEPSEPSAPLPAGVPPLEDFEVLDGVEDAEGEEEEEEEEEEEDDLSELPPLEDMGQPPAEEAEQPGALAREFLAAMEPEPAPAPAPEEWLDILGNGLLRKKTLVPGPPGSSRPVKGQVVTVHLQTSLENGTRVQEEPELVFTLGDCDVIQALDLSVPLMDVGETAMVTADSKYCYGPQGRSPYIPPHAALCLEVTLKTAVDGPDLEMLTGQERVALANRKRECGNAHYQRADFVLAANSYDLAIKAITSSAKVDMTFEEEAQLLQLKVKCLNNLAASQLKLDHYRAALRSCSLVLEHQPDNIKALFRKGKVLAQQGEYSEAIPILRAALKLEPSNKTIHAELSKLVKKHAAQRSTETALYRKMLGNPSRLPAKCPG

As to Cpr6: yeast peptidyl-propyl isomerase, the “effect on ATPase activity of yeast Hsp90” value in data set [1] (peptidyl-propyl isomerase Cpr6, previous studies, ref [41]) was “weakly activates”.

By Kd is commonly meant a measure of binding affinity in units of concentration. For the substance “Hsp90β^295-724: fragment representing the middle and C-terminal domain of Hsp90β”, the Kd in data set [2] came to 6400 ± 500 nM. Regarding “Hsp90β: Full-length human Hsp90β, expressed as His-tagged fusion”, the Kd in data set [2] amounted to 2800 ± 100 nM; in data set [3] it was 2600 ± 200 nM. The “binding (in words)” value in data set [4] is reported as “failed to bind”. For the substance “Sti1: TPR domain protein Sti1 (HOP in humans)”, the “effect on ATPase activity of yeast Hsp90” value in data set [1] (TPR domain protein Sti1 (HOP in humans), previous studies, ref [42]) is on record as “inhibit; also recorded: strong inhibitor”. In the case of “yHsp90^546-709: yeast C-terminal fragment of Hsp90”, in data set [5], the “binding (in words)” value is “failed to bind”. Moreover, the “co-migration in gel filtration” value is recorded as “co-migrated” in data set [6] and “co-migrate as a complex” in data set [7].

The values are drawn from paper PMC5344419, “The structure of FKBP38 in complex with the MEEVD tetratricopeptide binding-motif of Hsp90” (PLoS ONE, 2017).
